Key:
[1] = target: Chp2 (Schizosaccharomyces pombe) (UniProt O42934); conditions: cited from earlier work
[2] = target: full-length human HP1α WT (hHP1α), recombinant (human) (UniProt P45973); test: ITC; iTC200, full-length HP1α dimer in the cell (60 μM for hINCENP, 80 μM for hSgo1), 600 μM hINCENP or 800 μM hSgo1 fragment in the syringe, 25°C, 20 mM NaPO4 pH 7.0, 150 mM NaCl, 1 mM DTT (Fig. 6A, Fig. S5A); one-site model
full-length human HP1α WT (hHP1α), recombinant (human), sequence (P45973 whole entry, the tested form may be a part): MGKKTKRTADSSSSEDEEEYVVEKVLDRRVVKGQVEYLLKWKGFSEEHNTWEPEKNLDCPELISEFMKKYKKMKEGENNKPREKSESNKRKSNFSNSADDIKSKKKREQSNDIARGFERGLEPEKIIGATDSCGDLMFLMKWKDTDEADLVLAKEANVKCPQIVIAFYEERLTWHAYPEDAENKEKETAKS

Chp2 (Schizosaccharomyces pombe), sequence (O42934 whole entry, the tested form may be a part): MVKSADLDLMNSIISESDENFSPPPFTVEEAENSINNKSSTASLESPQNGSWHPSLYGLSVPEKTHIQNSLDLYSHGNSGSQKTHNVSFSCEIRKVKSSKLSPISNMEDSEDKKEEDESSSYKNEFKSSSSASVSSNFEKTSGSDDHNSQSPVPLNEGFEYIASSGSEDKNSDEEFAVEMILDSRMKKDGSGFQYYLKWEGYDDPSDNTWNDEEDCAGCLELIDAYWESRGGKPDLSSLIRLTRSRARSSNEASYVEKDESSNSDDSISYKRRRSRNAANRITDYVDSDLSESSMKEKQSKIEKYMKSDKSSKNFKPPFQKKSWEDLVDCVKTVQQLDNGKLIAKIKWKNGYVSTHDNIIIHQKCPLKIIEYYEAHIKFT
Mit1, sequence (Q9P793 whole entry): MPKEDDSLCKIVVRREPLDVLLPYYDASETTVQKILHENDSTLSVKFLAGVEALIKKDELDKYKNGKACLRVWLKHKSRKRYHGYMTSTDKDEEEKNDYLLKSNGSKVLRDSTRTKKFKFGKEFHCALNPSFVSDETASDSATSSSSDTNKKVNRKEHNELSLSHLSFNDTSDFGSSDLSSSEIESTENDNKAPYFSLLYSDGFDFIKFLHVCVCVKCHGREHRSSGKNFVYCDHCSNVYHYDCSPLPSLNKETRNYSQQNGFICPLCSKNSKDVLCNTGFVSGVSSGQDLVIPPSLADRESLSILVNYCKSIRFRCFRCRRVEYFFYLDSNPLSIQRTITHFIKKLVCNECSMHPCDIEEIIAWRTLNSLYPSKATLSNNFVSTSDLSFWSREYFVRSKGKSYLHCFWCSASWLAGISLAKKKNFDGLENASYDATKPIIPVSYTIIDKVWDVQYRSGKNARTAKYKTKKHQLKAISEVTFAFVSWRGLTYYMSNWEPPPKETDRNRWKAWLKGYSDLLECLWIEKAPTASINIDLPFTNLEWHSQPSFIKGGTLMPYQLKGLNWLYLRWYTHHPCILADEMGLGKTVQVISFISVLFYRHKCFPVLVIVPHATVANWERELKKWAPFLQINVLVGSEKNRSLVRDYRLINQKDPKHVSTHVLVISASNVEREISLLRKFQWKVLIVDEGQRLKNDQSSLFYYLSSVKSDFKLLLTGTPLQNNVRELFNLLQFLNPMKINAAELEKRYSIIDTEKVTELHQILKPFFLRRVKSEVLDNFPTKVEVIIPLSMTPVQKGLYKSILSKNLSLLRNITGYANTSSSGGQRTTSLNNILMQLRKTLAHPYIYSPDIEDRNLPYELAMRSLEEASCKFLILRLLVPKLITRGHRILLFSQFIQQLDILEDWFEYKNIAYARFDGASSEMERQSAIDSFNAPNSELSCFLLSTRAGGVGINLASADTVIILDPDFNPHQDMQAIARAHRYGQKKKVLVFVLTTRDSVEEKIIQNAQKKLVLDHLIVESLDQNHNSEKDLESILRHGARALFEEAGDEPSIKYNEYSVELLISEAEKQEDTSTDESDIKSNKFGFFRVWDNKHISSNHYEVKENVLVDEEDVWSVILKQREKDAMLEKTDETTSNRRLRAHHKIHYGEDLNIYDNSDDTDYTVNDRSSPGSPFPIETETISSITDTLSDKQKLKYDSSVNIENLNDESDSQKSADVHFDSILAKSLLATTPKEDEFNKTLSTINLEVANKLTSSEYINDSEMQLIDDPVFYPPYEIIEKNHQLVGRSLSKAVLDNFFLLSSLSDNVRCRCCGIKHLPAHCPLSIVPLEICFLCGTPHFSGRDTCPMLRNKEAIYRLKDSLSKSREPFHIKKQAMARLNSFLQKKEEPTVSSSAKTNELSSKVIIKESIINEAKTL

Row | Kd [2] | Substance | Kd [1]
1 |  | Mit1 (from UniProt Q9P793) | 2.6 nM
2 | 810 nM | human INCENP fragment (121-210) E180A (from UniProt Q9NQS7 121-210) (domain or fragment) | 
3 | 60 nM | human INCENP fragment (121-210) WT used in Fig. 6A (from UniProt Q9NQS7 121-210) (domain or fragment) | 

Source: article PMC11116813
